Laboratory results reported in PMC12073449, “Development of a Mechanism of Action-Reflective Cell-Based Reporter Gene Assay for Measuring Bioactivities of Therapeutic Glucagon-like Peptide-2 Analogues” (Molecules, 2025).
Square brackets hold non-standard residues; d marks the D form. Ends that are not written are not given here. Nle = CCCC[C@H](N)C(=O)O

Key:
[1] = tested on: dipeptidyl peptidase 4 (DPP-4); conditions: cited from earlier work
Source text: (§1) This truncated form is subsequently degraded by endopeptidases and presumably cleared via renal excretion. […] Consequently, DPP-4 resistant GLP-2 analogues with an extended half-life were developed.

patients with SBS = conditions: cited from earlier work
Source text: as §1

rat GLP-2R = conditions: BHK fibroblasts stably transfected with the rat GLP-2R; cited from earlier work
Source text: GLP-2 exerts its effects largely through interaction with the GLP-2 receptor (GLP-2R), which belongs to the class B1 of the G protein-coupled receptors. […] This led to the hypothesis that GLP-2 acts indirectly through a complex network of indirect mediators that induce diverse signaling pathways, which remains poorly understood.

[2] = tested on: enteric neurons and glial cells; conditions: via the PI3K/Akt/mTOR pathway; cited from earlier work
Source text: (§2) GLP-2 regulates proliferative and cytoprotective pathways in the intestine. […] Additionally, it couples with the activation of the Ras/MAPK pathway and stimulates DNA synthesis.

intestinal epithelium = conditions: rodents; cited from earlier work
Source text: as §2

human GLP-2R [3] = molecular target: T1, human GLP-2R (Homo sapiens, UniProt O95838); test: Cell-based reporter gene assay (RGA), HEK293-GLP-2R-Luc, CRE-luciferase; conditions: for dose-response curve in RGA / concentration–response curve in RGA (specificity): diluted to 2.665 µmol/L and further 7-fold for 10 concentration points, HEK293-GLP-2R-Luc cells; for Mean potency: mean of 8 tests, two analysts
T1 construct: The full-length cDNA of human GLP-2R was synthesized, cloned, and inserted into the pLU.cmv.Zeo vector; expressed in transfected cells
T1 sequence (O95838 1-553): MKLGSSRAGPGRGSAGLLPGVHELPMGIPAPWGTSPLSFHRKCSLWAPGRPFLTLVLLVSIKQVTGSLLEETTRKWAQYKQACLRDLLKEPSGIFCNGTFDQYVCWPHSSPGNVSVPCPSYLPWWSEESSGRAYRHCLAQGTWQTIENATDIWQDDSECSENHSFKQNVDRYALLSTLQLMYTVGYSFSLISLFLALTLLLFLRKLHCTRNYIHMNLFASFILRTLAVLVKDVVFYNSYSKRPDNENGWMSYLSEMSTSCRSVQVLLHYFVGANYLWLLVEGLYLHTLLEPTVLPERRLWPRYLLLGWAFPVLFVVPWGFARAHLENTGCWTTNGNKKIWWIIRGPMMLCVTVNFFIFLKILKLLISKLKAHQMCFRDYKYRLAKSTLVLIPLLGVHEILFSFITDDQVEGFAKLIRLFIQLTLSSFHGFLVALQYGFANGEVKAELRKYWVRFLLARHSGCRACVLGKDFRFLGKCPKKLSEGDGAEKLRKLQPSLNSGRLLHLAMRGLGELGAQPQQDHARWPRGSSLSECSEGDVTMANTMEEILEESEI
Method: To generate a HEK293 cell line stably expressing CRE-driven luciferase and GLP2R, the CRE-miniP.Luc virus-containing cell supernatants were diluted in DMEM in the presence of 8 µg/mL polybrene before being added to HEK293 cells. To obtain a stable cell pool, the medium was replaced 48 h after incubation, with fresh culture medium containing 3 µg/mL puromycin. After about 3 weeks selection, the cell pool was then further infected with pLU.cmv-GLP2R.Zeo virus and selected with 200 µg/mL Zeocin and 3 µg/mL puromycin. […] The expression of GLP-2R was examined using flow cytometry. After that, the positive clones were routinely maintained in selective medium.
Cell-based RGA has been described previously. Briefly, 50 microliters of HEK293-GLP-2R-Luc cells were seeded into a 96-well white plate at a density of 4 × 10^4 cells/well. The cells were then incubated at 37 °C with 5% CO2 overnight (16 to 24 h). […] After 5 h of incubation, 100 µL of britelite plus reporter Gene Assay reagent were added to each well and mixed thoroughly under subdued light conditions for 5 min. The RLU signal was then determined with a SpectraMax M5e multimode plate reader (Molecular Devices, San Jose, CA, USA).
The RGA was validated as described previously. […] Samples of each potency level were tested by two analysts 8 times in total. […] The response of HEK293-GLP2R-Luc cells to these samples were determined as illustrated in 4.6.
The lower/upper asymptote was determined by the ratio of the top asymptote to the bottom asymptote when RGA best fit the 4PL model. The correlation coefficient (R^2), deviations from parallelism, and the regression in the 4PL model were estimated using SoftMax® Pro 7.1 software (Molecular Devices, San Jose, CA, USA). Specifically, a linear regression with an R^2 value no less than 0.98 was considered to have a very good fit. Additionally, a p-value below 0.01 was regarded as statistically significant. […] All the dose-response curves were plotted using GraphPad Prism® software 8.0.2 (GraphPad, Boston, MA, USA).

rat = tested on: rat; parameters: method as in PMID 31577440; conditions: head-to-head preclinical study; cited from earlier work
[4] = parameters: method as in PMID 35933503; conditions: general statement; cited from earlier work
Source text: The diverse functions of GLP-2 highlight its significance in maintaining intestinal health and physiology. As a naturally occurring gut hormone, GLP-2 not only promotes nutrient absorption by decreasing intestinal motility and permeability, but also plays a pivotal role in stimulating intestinal epithelial cell growth and function. This multifaceted action of GLP-2 is crucial for the maintenance of the intestinal barrier, which is essential for preventing the translocation of harmful bacteria and toxins into the bloodstream.

intestinal cells = tested on: intestinal cells; parameters: method as in PMID 32060615; conditions: cited from earlier work
[5] = Teduglutide content by HPLC after storage at 37 °C; format: physicochemical; conditions: XBridge Peptide BEH C18, 214 nm, peak area ratio to non-treated DS
Method: The bioactivities of the treated and non-treated DS were then measured by the RGA. The teduglutide contents were analyzed by HPLC. An XBridge Peptide BEH C18 column (300 A, 5 μm, 4.6 mm × 250 mm) purchased from Waters (Milford, MA, USA) was used with a flow rate of 1.0 mL/min and was detected at 214 nm. The mobile phase was aqueous solution containing 0.1% trifluoroacetic acid and acetonitrile containing 0.1% trifluoroacetic acid. A total of 50 μL DS samples were injected into the column.

[6] = Appearance of teduglutide drug substance solution after storage at 37 °C; format: physicochemical; conditions: after incubation for 12 or 14 days at 37 °C
human GLP-2R [7] = molecular target: T1, human GLP-2R; test: Cell-based reporter gene assay (RGA), HEK293-GLP-2R-Luc, CRE-luciferase; conditions: incubation time 5 h and 6 h, compared with 4 h; 96-well plate

GLP-2 (3–33): truncated and inactive GLP-2 formed by DPP-4 (DGSFSDEMNTILDNLAARDFINWLIQTKITD; Glucagon-like peptide 2; UniProt P01275 148-178, looked up, fragment)
activity of truncated GLP-2 ([1]; DPP-4 cleavage product): inactive

Glucagon-like peptide-2 [GLP-2]
inactivation by DPP-4 ([1]; excision of the two N-terminal amino acids): rapid inactivation | intestinal absorption, growth and transit in SBS (patients with SBS; SBS): increase intestinal absorption by promoting intestinal growth and delays accelerated gastric emptying, gastrointestinal transit, and hypersecretions | cAMP accumulation (rat GLP-2R): dose-dependent cAMP accumulation | neuronal differentiation [2]: stimulate neuronal differentiation | growth of the intestinal epithelium (intestinal epithelium): enhances the growth of the intestinal epithelium

HGDGSFSDE[Nle][dF]TILDLLAARDFINWLIQTKITD-NH2 [apraglutide, GLP-2 analogue under development for SBS, synthesized by GenScript]
dose-response curve in RGA (human GLP-2R [3]): induced sigmoid curves similar to those induced by teduglutide | dependence on PN support (patients with SBS; Phase II clinical trials, SBS): significant reduction in patients’ dependence on PN support | half-life compared to teduglutide and glepaglutide (rat): longer half-life | intestinotrophic effect compared to teduglutide and glepaglutide (rat): greater intestinotrophic effect | bioactivity [4]: enhanced bioactivities | half-life [4]: extended half-lives

HGEGSFSSELSTILDALAARDFINWLIATKITDKKKKKK [elsiglutide, GLP-2 analogue under development, synthesized by GenScript]
dose-response curve in RGA (human GLP-2R [3]): induced sigmoid curves similar to those induced by teduglutide | cell proliferation and intestinal cell apoptosis (intestinal cells): increase cell proliferation and reduce intestinal cell apoptosis | bioactivity [4]: enhanced bioactivities | half-life [4]: extended half-lives

His-Gly-Asp-Gly-Ser-Phe-Ser-Asp-Glu-Met-Asn-Thr-Ile-Leu-Asp-Asn-Leu-Ala-Ala-Arg-Asp-Phe-Ile-Asn-Trp-Leu-Ile-Gln-Thr-Lys-Ile-Thr-Asp [teduglutide, [Gly2] hGLP-2 (1–33), first and only GLP-2 analogue approved for medical treatment of short bowel syndrome]
response of five clones (human GLP-2R [3]; clones D5, D9, E11, F2, G11): high response | Mean Ln potency (human GLP-2R [3]; expected 50%): −0.659 | Mean potency (human GLP-2R [3]; expected 50%): 0.518 | Mean Ln potency (human GLP-2R [3]; expected 71%): −0.343 | Mean potency (human GLP-2R [3]; expected 71%): 0.711 | Mean Ln potency (human GLP-2R [3]; expected 100%): 0.005 | Mean potency (human GLP-2R [3]; expected 100%): 1.007 | Mean Ln potency (human GLP-2R [3]; expected 141%): 0.372 | Mean potency (human GLP-2R [3]; expected 141%): 1.453 | Mean Ln potency (human GLP-2R [3]; expected 200%): 0.757 | Mean potency (human GLP-2R [3]; expected 200%): 2.140 | teduglutide content ([5]; end of decline with incubation at 37 °C): 81.6% | teduglutide content ([5]; start of decline, 37 °C): 99.9% | precipitation of DS solution [6]: develops a clear colloidal precipitate | drug response vs incubation time (human GLP-2R [7]): stronger response (higher upper asymptote) | intestinal absorption, growth and transit in SBS (patients with SBS; SBS): increase intestinal absorption by promoting intestinal growth and delays accelerated gastric emptying, gastrointestinal transit, and hypersecretions | PN requirements and intestinal function (patients with SBS; patients with SBS, daily treatment): significant reduction in PN requirements and an improvement in intestinal function | bioactivity [4]: enhanced bioactivities | half-life [4]: extended half-lives

IL-4: 200-04, Thermo Fisher Scientific
concentration–response curve in RGA (specificity) (human GLP-2R [3]): no dose–dependent response curve was induced

IL-6: 200-06, Thermo Fisher Scientific
concentration–response curve in RGA (specificity) (human GLP-2R [3]): no dose–dependent response curve was induced

glucagon-like peptide-1 [GLP-1]
concentration–response curve in RGA (specificity) (human GLP-2R [3]): unsuccessfully induced

glucose-dependent insulinotropic peptide [GIP]
concentration–response curve in RGA (specificity) (human GLP-2R [3]): unsuccessfully induced
